Reference: PMC7556843, “The dynamics of linear polyubiquitin” (Science Advances, 2020)

Columns and labels:
[1] = target: T1, linear (M1-linked) triubiquitin (UniProt P0CG48 1-76; P0CG48 1-76; P0CG48 1-76); assay: ITC; NEMO titrated into Ub3 or Ub4 in the cell; 298 K; 50 mM sodium phosphate pH 7.0, 50 mM NaCl; triplicate; settings: both partners purified
T1 construct: ubiquitin, 76-residue unit, first of three joined head to tail (residues 1-76 of the chain); ubiquitin, 76-residue unit, second of three (residues 77-152 of the chain); ubiquitin, 76-residue unit, third of three (residues 153-228 of the chain); Construct was a gift of P. Elliott and D. Komander; no tag or extra residues are told; One polypeptide of three ubiquitin units linked M1 to C-terminus; …
T1 sequence (P0CG48 1-228, one chain of several): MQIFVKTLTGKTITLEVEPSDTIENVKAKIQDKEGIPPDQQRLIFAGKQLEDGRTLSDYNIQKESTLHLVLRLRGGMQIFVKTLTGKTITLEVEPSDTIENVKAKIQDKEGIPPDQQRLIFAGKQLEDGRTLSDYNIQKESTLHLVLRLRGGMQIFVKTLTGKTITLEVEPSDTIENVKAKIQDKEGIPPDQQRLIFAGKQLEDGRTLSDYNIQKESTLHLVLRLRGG

[2] = target: T2, linear (M1-linked) tetraubiquitin (UniProt P0CG48 1-76; P0CG48 1-76; P0CG48 1-76; P0CG48 1-76); assay: as above; settings: both partners purified
T2 construct: ubiquitin, 76-residue unit, first of four joined head to tail (residues 1-76 of the chain); ubiquitin, 76-residue unit, second of four (residues 77-152 of the chain); ubiquitin, 76-residue unit, third of four (residues 153-228 of the chain); ubiquitin, 76-residue unit, fourth of four (residues 229-304 of the chain); Construct was a gift of P. Elliott and D. Komander; no tag or extra residues are …
T2 sequence (P0CG48 1-304, one chain of several): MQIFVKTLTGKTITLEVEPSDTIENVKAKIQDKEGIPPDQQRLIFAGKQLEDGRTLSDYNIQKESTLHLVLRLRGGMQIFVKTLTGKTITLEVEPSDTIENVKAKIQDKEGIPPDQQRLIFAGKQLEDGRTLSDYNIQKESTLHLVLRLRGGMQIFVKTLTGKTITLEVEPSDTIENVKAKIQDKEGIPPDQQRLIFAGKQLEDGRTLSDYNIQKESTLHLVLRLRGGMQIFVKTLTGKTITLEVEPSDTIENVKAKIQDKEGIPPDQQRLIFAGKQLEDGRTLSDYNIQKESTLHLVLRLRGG

[3] = target: the molecule itself; assay: SEC-MALS; SEC (Superdex 200 10/300 GL, 4°C) with static light scattering (right-angle, Viscotek TDA 305, 30°C); about 8 mg/ml; 50 mM tris-HCl, 300 mM NaCl pH 8.0 and 50 mM sodium phosphate, 50 mM NaCl pH 7.0
[4] = target: T1, linear (M1-linked) triubiquitin; assay: as above; settings: both partners purified
[5] = target: T2, linear (M1-linked) tetraubiquitin; assay: as above; settings: both partners purified
[6] = target: T1, linear (M1-linked) triubiquitin; assay: SPR; Ub3 and Ub4 immobilised by amine coupling (456 and 721 RU); NEMO injected in a twofold series; 25°C; 50 mM sodium phosphate, 50 mM NaCl, 0.005% Tween 20, pH 7; equilibrium responses fitted to a 1:1 Langmuir isotherm; settings: both partners purified
[7] = target: T2, linear (M1-linked) tetraubiquitin; assay: as above; settings: both partners purified

Kd [1]: 1.6 µM
dH [1]: -4.28 kcal/mol
Kd [2]: 4.1 µM
dH [2]: -4.49 kcal/mol
stoichiometry N [4]: 2 NEMO:Ub3
stoichiometry N [5]: 2 NEMO:Ub4
Kd [6]: 9.6 µM
Kd [7]: 6.4 µM
B1: Human NEMO258-350 C347S (NEMO UBAN domain) (domain or fragment, UniProt Q9Y6K9 258-350, looked up)
chain: MQLEDLKQQLQQAEEALVAKQEVIDKLKEEAEQHKIVMETVPVLKAQADIYKADFQAERQAREKLAEKKELLQEQLEQLQREYSKLKASSQES
notes: NEMO (IKKγ, NF-κB essential modulator), human, residues 258-350 (UBAN domain) with C347S; also called NEMO mutant (C347S); IKKγ; source: expressed and purified as described in Vincendeau et al. (23)
binding result [3]: binds
